Results on seven molecules are retold here after patent publication US20260108607A1 (BEIJING DCTY BIOTECH, published 2026).

B1: humanized antibody 28-H3 (84C3G8H7-VH3 + VL1) (scFv)
scFv: QVQLVQSGAEVKKPGASVKVSCKASGFNIKDYYMHWVRQAPGQRLEWIGWIDPENGNTIYDPKFQGRATITADTSASTAYMELSSLRSEDTAVYYCARGWFAYWGQGTLVTVSSGGGGSGGGGSGGGGSGGGGSDIVMTQSPDSLAVSLGERATINCKSSQSLLNSSNQKNHLAWYQQKPGQPPKLLIYFASTRASGVPDRFSGSGSGTDFTLTISSLQAEDVAVYYCQQHYSTPLTFGGGTKLELK
notes: the format in the SPR assay is not clearly stated
B2: humanized antibody 28-H8 (84C3G8H7-VH3 + VL2(PTM)) (scFv)
scFv: QVQLVQSGAEVKKPGASVKVSCKASGFNIKDYYMHWVRQAPGQRLEWIGWIDPENGNTIYDPKFQGRATITADTSASTAYMELSSLRSEDTAVYYCARGWFAYWGQGTLVTVSSGGGGSGGGGSGGGGSGGGGSDIVMTQSPDSLAVSLGERATINCKSSQSLLNSSNQKNHLAWYQQKPGQPPKLLVYFASTRGSGVPDRFSGSGSGTDFTLTISSLQAEDVAVYFCQQHYSTPLTFGGGTKLELK
notes: as for B1
B3: humanized antibody 28-H4 (84C3G8H7-VH3 + VL2) (scFv)
scFv: QVQLVQSGAEVKKPGASVKVSCKASGFNIKDYYMHWVRQAPGQRLEWIGWIDPENGNTIYDPKFQGRATITADTSASTAYMELSSLRSEDTAVYYCARGWFAYWGQGTLVTVSSGGGGSGGGGSGGGGSGGGGSDIVMTQSPDSLAVSLGERATINCKSSQSLLNSSNQKNHLAWYQQKPGQPPKLLVYFASTRASGVPDRFSGSGSGTDFTLTISSLQAEDVAVYFCQQHYSTPLTFGGGTKLELK
notes: as for B1
B4: humanized antibody 28-H5 (84C3G8H7-VH4 + VL1) (scFv)
scFv: QVQLVQSGAEVKKPGASVKVSCKASGFNIKDYYMHWVKQAPGQRLEWIGWIDPENGNTIYDPKFQGRATITADTSANTAYMELSSLRSEDTAVYYCARGWFAYWGQGTLVTVSSGGGGSGGGGSGGGGSGGGGSDIVMTQSPDSLAVSLGERATINCKSSQSLLNSSNQKNHLAWYQQKPGQPPKLLIYFASTRASGVPDRFSGSGSGTDFTLTISSLQAEDVAVYYCQQHYSTPLTFGGGTKLELK
notes: as for B1
B5: humanized antibody 28-H7 (84C3G8H7-VH3 + VL1(PTM)) (scFv)
scFv: QVQLVQSGAEVKKPGASVKVSCKASGFNIKDYYMHWVRQAPGQRLEWIGWIDPENGNTIYDPKFQGRATITADTSASTAYMELSSLRSEDTAVYYCARGWFAYWGQGTLVTVSSGGGGSGGGGSGGGGSGGGGSDIVMTQSPDSLAVSLGERATINCKSSQSLLNSSNQKNHLAWYQQKPGQPPKLLIYFASTRGSGVPDRFSGSGSGTDFTLTISSLQAEDVAVYYCQQHYSTPLTFGGGTKLELK
notes: as for B1
B6: humanized antibody 28-H9 (84C3G8H7-VH4 + VL1(PTM)) (scFv)
scFv: QVQLVQSGAEVKKPGASVKVSCKASGFNIKDYYMHWVKQAPGQRLEWIGWIDPENGNTIYDPKFQGRATITADTSANTAYMELSSLRSEDTAVYYCARGWFAYWGQGTLVTVSSGGGGSGGGGSGGGGSGGGGSDIVMTQSPDSLAVSLGERATINCKSSQSLLNSSNQKNHLAWYQQKPGQPPKLLIYFASTRGSGVPDRFSGSGSGTDFTLTISSLQAEDVAVYYCQQHYSTPLTFGGGTKLELK
notes: as for B1
B7: 84C3G8H7-chimeric-scFv (20-2-28) (scFv, V domains shown)
VH: EVQLQQSGAELVRPGALVKLSCKASGFNIKDYYMHWVKQRPEQGLEWIGWIDPENGNTIYDPKFQGKASITADTSSNTAYLQLSSLTSEDTAVYYCARGWFAYWGQGTLVTVSA
VL: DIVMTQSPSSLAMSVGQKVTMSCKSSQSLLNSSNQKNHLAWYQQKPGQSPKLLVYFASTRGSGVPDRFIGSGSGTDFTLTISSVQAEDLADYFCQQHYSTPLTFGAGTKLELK

The target in this assay is T1, EGFRvIII target antigen (SPR ligand) (UniProt P00533 25-645, limits assumed).
T1 construct: also called EGFRvIII antigen
In words: SPR; antibody as analyte. (In general: Surface plasmon resonance follows binding to a sensor surface in real time, without labels.)
Usually Kd stands for a measure of binding affinity in units of concentration. As a reminder, the koff is a measure of how fast the partners let go of each other. Lower therefore signals a long-lived complex. In general, kon refers to the second-order rate constant of association. The molecule B1 came in with a Kd of 167 nM, a koff of 0.0221 s⁻¹ and a kon of 132000 M⁻¹ s⁻¹.
The corresponding values for B2 are 72.6 nM, 0.0103 s⁻¹ and 142000 M⁻¹ s⁻¹.
In the same order, the values of B3 are 154 nM, 0.0206 s⁻¹ and 134000 M⁻¹ s⁻¹.
For the molecule B4, the Kd stood at 80.3 nM, the koff is 0.00891 s⁻¹ and the kon came to 111000 M⁻¹ s⁻¹.
In turn, B5 yielded a Kd of 77.2 nM, a koff of 0.0112 s⁻¹ and a kon of 146000 M⁻¹ s⁻¹.
B6 yielded a dissociation constant Kd of 47.5 nM, a koff of 0.00665 s⁻¹ and a kon of 140000 M⁻¹ s⁻¹.
As to B7, the Kd was found to be 59 nM, the koff was 0.00883 s⁻¹ and the on-rate (kon) was 150000 M⁻¹ s⁻¹.
